Patent publication US20150283214A1

Molecular target: α5β1 integrin on mouse embryonic fibronectin-null fibroblasts (mouse) (UniProt P11688)
Assay: cell-based or functional assay

Chain of α5β1 integrin on mouse embryonic fibronectin-null fibroblasts (mouse) (P11688 45-1053, chain 1 of 2): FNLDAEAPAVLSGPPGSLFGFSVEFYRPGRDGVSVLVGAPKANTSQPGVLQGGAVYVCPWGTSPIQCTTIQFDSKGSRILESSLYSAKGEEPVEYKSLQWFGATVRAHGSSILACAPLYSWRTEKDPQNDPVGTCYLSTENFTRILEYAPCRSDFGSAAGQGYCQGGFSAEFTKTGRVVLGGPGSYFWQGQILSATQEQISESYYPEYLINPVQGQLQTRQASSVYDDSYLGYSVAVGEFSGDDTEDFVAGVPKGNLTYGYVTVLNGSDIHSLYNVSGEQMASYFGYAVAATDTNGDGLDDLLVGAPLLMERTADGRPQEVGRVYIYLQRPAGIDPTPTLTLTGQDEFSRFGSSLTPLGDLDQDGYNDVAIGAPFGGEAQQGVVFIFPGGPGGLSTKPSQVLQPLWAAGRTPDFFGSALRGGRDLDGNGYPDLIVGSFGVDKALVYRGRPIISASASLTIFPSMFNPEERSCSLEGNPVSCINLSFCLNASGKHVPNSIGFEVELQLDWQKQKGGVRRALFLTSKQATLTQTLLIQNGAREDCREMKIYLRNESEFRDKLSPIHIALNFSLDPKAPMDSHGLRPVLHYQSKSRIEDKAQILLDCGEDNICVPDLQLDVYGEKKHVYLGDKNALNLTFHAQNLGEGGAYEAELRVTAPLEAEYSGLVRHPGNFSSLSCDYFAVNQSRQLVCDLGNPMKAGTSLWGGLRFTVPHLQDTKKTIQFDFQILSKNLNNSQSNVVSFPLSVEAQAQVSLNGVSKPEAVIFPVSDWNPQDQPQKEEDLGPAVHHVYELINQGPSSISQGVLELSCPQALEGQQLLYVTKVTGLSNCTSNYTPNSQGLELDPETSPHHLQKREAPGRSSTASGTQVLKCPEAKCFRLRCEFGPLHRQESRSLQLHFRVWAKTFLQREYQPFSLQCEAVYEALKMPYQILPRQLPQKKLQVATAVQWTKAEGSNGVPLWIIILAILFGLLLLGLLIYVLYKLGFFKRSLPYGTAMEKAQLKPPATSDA
Chain of α5β1 integrin on mouse embryonic fibronectin-null fibroblasts (mouse) (P09055 21-798, chain 2 of 2, further chain): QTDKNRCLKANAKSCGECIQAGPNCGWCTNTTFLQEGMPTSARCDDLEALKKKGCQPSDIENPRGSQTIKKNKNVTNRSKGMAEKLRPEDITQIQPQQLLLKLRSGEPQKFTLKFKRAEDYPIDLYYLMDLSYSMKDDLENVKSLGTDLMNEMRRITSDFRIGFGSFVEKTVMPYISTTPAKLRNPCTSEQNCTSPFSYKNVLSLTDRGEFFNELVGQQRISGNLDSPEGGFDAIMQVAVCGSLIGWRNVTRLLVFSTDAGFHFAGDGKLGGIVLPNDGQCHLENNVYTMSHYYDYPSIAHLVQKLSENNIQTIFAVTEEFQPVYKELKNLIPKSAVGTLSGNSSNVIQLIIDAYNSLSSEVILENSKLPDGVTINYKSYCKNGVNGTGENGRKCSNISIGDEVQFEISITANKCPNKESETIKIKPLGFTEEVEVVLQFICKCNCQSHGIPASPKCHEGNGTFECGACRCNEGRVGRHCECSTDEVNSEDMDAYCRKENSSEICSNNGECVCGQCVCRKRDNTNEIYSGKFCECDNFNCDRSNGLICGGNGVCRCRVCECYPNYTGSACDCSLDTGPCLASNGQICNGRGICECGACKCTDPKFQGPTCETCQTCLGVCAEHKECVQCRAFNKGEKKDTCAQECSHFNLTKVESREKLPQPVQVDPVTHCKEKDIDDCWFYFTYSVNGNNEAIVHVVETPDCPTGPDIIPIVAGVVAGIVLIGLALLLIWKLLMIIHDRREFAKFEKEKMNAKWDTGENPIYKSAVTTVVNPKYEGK
Chain of Human plasma fibronectin, P02751 32-2477 (other; Alexa^488 label where used as FN^488) (P02751 other isoform, or with tags, fused parts or gaps): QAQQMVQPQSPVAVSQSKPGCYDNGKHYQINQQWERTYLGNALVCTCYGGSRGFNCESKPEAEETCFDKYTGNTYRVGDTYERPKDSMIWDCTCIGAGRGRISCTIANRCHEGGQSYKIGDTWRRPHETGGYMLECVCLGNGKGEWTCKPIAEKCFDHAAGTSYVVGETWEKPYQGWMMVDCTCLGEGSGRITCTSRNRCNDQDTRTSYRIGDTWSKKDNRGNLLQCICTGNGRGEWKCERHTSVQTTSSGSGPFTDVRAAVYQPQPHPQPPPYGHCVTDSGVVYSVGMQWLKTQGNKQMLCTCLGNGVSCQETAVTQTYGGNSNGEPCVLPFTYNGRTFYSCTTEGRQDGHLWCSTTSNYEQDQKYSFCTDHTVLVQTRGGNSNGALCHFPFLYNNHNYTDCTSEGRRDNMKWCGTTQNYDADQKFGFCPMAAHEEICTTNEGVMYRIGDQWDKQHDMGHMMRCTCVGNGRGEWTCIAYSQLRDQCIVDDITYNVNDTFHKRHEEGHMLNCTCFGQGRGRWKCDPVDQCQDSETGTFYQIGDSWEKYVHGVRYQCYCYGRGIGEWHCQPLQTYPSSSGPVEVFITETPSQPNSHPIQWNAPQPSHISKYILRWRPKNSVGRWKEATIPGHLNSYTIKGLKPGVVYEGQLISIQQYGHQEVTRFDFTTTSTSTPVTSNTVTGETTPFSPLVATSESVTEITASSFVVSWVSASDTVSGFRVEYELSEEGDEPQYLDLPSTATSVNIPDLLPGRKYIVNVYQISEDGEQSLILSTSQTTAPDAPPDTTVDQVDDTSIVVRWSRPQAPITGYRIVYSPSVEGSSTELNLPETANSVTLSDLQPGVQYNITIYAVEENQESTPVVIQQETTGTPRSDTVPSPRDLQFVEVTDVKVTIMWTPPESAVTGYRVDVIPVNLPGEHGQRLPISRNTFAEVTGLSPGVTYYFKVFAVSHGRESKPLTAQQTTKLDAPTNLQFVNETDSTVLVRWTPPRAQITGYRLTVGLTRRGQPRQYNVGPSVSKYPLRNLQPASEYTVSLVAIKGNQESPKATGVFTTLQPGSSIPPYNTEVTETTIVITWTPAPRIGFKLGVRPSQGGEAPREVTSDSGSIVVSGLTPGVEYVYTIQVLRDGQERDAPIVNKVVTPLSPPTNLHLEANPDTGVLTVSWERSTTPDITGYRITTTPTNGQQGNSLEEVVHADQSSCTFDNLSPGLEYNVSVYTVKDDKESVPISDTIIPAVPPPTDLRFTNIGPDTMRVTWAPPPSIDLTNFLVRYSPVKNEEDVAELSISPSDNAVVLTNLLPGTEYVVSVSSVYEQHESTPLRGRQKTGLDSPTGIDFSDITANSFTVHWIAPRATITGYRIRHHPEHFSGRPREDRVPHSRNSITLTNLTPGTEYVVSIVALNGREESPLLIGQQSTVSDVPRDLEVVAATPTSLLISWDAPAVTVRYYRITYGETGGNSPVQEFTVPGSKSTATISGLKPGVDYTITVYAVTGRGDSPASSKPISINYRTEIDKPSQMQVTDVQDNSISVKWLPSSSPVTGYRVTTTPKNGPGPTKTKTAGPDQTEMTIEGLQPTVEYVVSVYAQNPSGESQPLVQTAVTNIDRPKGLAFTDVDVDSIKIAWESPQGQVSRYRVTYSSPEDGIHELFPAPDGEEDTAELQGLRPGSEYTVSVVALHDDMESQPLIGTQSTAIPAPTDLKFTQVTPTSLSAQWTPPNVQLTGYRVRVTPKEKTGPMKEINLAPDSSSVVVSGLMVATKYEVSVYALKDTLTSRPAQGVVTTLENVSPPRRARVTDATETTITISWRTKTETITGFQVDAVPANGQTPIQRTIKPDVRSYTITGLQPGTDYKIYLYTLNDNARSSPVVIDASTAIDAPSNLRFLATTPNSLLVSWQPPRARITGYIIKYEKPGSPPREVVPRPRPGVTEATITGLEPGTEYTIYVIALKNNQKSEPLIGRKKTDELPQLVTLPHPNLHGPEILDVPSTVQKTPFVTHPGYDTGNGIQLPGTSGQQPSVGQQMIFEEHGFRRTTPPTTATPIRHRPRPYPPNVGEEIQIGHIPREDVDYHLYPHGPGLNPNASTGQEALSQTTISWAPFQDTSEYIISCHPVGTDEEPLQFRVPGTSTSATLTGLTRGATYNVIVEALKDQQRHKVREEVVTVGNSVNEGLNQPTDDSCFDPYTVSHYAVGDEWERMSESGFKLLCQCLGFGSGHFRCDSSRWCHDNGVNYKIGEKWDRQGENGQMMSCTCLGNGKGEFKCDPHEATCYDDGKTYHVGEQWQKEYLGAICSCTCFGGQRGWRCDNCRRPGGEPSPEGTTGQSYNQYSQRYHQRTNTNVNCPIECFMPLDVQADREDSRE

## Human plasma fibronectin, P02751 32-2477 (other; Alexa^488 label where used as FN^488)
  reduction of FN-null MEF adhesion to full-length fibronectin by α5 integrin-blocking antibody: 53%
  reduction of FN-null MEF adhesion to full-length fibronectin by β1 integrin-blocking antibody: 71.3%
